Source: PMC3760798, “Analysis of the RelA:CBP/p300 Interaction Reveals Its Involvement in NF-κB-Driven Transcription” (PLoS Biology, 2013)
Positions count from the first letter of the chain named. Names may count otherwise.

B1: GB1-tagged RelA fragment 441–508 wt (domain or fragment, mouse, UniProt Q04207 441-508, looked up)
chain: LQFDADEDLGALLGNSTDPGVFTDLASVDNSEFQQLLNQGVSMSHSTAEPMLMEYPEAITRLVTGSQR
notes: RelA (p65), mouse, residues 441-508; also called N-terminal truncation to remove residues Lys425–His440; source: expressed as His6-GB1 fusion, purified; His6-tag cleaved by TEV protease; not shown: His6, N-terminal, cleaved; GB1, N-terminal, kept
B2: GB1-tagged RelA–TA2 fragment 425–508 wt (domain or fragment, mouse, UniProt Q04207 425-508, looked up)
chain: KSTQAGEGTLSEALLHLQFDADEDLGALLGNSTDPGVFTDLASVDNSEFQQLLNQGVSMSHSTAEPMLMEYPEAITRLVTGSQR
notes: GB1 is the 58-residue B1 domain of streptococcal protein G, kept for concentration determination; also called RelA–TA2 fragment of Lys425–Arg508; source: expressed as His6-GB1 fusion, purified; His6-tag cleaved by TEV protease; not shown: His6, N-terminal, cleaved; GB1, N-terminal, kept
B3: GB1-tagged RelA–TA2 fragment 425–508 (S467D) (domain or fragment, mouse, UniProt Q04207 425-508, looked up)
chain: B2 chain with S43D
notes: also called RelA(Ser467Asp); phosphomimetic mutant; source: expressed as His6-GB1 fusion, purified; His6-tag cleaved by TEV protease; not shown: His6, N-terminal, cleaved; GB1, N-terminal, kept
B4: GB1-tagged RelA–TA2 fragment 425–508 (L465A) (domain or fragment, mouse, UniProt Q04207 425-508, looked up)
chain: B2 chain with L41A
notes: also called Leu465Ala; source: expressed as His6-GB1 fusion, purified; His6-tag cleaved by TEV protease; not shown: His6, N-terminal, cleaved; GB1, N-terminal, kept
B5: GB1-tagged RelA–TA2 fragment 425–508 (L449A) (domain or fragment, mouse, UniProt Q04207 425-508, looked up)
chain: B2 chain with L25A
notes: also called Leu449Ala; source: expressed as His6-GB1 fusion, purified; His6-tag cleaved by TEV protease; not shown: His6, N-terminal, cleaved; GB1, N-terminal, kept
B6: GST-RelA fragment (Lys425–Pro490) Met483Ala (domain or fragment, mouse, UniProt Q04207 425-490, looked up)
chain: KSTQAGEGTLSEALLHLQFDADEDLGALLGNSTDPGVFTDLASVDNSEFQQLLNQGVSASHSTAEP
notes: also called RelA–TA2 M483A (GST); source: E. coli BL21(DE3), purified (glutathione sepharose); not shown: GST, N-terminal, kept
B7: GST-RelA fragment (Lys425–Pro490), wild type (domain or fragment, mouse, UniProt Q04207 425-490, looked up)
chain: B6 chain with A59M
notes: also called GST-RelA–TA2; construct T11; source: E. coli BL21(DE3), purified (glutathione sepharose); not shown: GST, N-terminal, kept
B8: RelA–TA2 (residues 425–490), tag cleaved (domain or fragment, mouse, UniProt Q04207 425-490, looked up)
chain: B6 chain with A59M
notes: 15N/13C labelled for NMR; source: expressed as His6-GB1 fusion, purified (Ni-NTA under denaturing conditions, thrombin cleavage, reverse-phase HPLC); not shown: His6, N-terminal, cleaved; GB1, N-terminal, cleaved
B9: TAZ1 domain of mouse CBP (residues 340–439) (domain or fragment)
chain: not shown
notes: Isotopically labelled in some NMR samples; also called CBP–TAZ1; CH1; source: purified

Tests used:
Conditions in all cases: both partners purified
[1] = biological target: B9; assay: ITC; TAZ1 (169 to 185 µM) in the syringe, GB1-tagged RelA–TA2 peptide (10 to 18 µM) in the cell; 25°C; 20 mM Tris pH 8.0, 150 mM NaCl, 1 mM DTT; single-binding site model
[2] = biological target: B9; assay: ITC; TAZ1 (169 to 185 µM) in the syringe, GB1-tagged RelA–TA2 peptide (10 to 18 µM) in the cell; 25°C; 20 mM Tris pH 8.0, 50 mM NaCl, 1 mM DTT; single-binding site model
[3] = biological target: B9; assay: pull-down; GST-RelA fragments (20 µg) on glutathione sepharose beads with purified TAZ1 (10 µg); 20 mM Tris pH 7.5, 150 mM NaCl, 0.5 mM DTT; 4°C, 30 min; washes with 0.3% TritonX-100; SDS-PAGE
[4] = biological target: B9; assay: NMR structure; solution structure of the complex; refolded TAZ1 and RelA fragment mixed; 25°C, 20 mM Tris pH 6.5, 40 mM NaCl, 2 mM DTT; 0.7–1.2 mM protein
[5] = biological target: B4; assay: ITC; TAZ1 (169 to 185 µM) in the syringe, GB1-tagged RelA–TA2 peptide (10 to 18 µM) in the cell; 25°C; 20 mM Tris pH 8.0, 150 mM NaCl, 1 mM DTT; single-binding site model
[6] = biological target: B2; assay: as above
[7] = biological target: B5; assay: as above
[8] = biological target: B3; assay: as above
[9] = biological target: B1; assay: as above
[10] = biological target: B2; assay: ITC; TAZ1 (169 to 185 µM) in the syringe, GB1-tagged RelA–TA2 peptide (10 to 18 µM) in the cell; 25°C; 20 mM Tris pH 8.0, 50 mM NaCl, 1 mM DTT; single-binding site model
[11] = biological target: B3; assay: as above

Binder: B1
Kd [1]: 387 nM

Binder: B2
Kd [1]: 244 nM | Kd [2]: 57 nM

Binder: B3
Kd [1]: 174 nM | Kd [2]: 41.2 nM

Binder: B4
Kd [1]: 1710 nM

Binder: B5
Kd [1]: 1600 nM

Binder: B6
binding result [3]: binds

Binder: B7
binding result [3]: binds

Binder: B8
binding result [4]: binds

Binder: B9
dH [5]: -2.4 kcal/mol | dH [6]: -7.2 kcal/mol | dH [7]: -5.4 kcal/mol | dH [8]: -7.8 kcal/mol | dH [9]: -8.3 kcal/mol | dH [10]: -5.9 kcal/mol | dH [11]: -6.5 kcal/mol
